{"source": "patent US10905736B2", "about": "“Ezetimibe-associated ApoA-I mimetic peptides showing enhanced synergism” (The Regents of the University of California, priority 2016, dated 2021)", "origin": "cited, not measured here", "details": "two hours after LDLR-/- mice finished eating WD containing Tg6F; cited from earlier work"}
{"sequence": "DWLKAFYDKFFEKFKEFF [6F peptide]", "values": [{"measurement": "presence of intact peptide in small intestine and plasma", "result": "found in the small intestine but not in the plasma"}]}
